# In paper PMC12392869 (Advanced Materials (Deerfield Beach, Fla.), 2025):
# B1: RGD peptide (GRRGDGATGH) (peptide)
# peptide: GRRGDGATGH
# notes: source: synthetic peptide
# Biological target: T1, integrin α5β1 on cells (human (endogenous in K562 and MCF10A), UniProt P08648 42-1049; P05556 21-798)
# T1 construct: integrin α5 subunit, endogenous; integrin β1 subunit, endogenous; also called intact α5β1; cellular α5β1; source: endogenous, on K562 cells (flow cytometry) and on MCF10A Cas-mScarlet cells (TIRF microscopy)
# T1 sequence (P08648 42-1049, chain 1 of 2): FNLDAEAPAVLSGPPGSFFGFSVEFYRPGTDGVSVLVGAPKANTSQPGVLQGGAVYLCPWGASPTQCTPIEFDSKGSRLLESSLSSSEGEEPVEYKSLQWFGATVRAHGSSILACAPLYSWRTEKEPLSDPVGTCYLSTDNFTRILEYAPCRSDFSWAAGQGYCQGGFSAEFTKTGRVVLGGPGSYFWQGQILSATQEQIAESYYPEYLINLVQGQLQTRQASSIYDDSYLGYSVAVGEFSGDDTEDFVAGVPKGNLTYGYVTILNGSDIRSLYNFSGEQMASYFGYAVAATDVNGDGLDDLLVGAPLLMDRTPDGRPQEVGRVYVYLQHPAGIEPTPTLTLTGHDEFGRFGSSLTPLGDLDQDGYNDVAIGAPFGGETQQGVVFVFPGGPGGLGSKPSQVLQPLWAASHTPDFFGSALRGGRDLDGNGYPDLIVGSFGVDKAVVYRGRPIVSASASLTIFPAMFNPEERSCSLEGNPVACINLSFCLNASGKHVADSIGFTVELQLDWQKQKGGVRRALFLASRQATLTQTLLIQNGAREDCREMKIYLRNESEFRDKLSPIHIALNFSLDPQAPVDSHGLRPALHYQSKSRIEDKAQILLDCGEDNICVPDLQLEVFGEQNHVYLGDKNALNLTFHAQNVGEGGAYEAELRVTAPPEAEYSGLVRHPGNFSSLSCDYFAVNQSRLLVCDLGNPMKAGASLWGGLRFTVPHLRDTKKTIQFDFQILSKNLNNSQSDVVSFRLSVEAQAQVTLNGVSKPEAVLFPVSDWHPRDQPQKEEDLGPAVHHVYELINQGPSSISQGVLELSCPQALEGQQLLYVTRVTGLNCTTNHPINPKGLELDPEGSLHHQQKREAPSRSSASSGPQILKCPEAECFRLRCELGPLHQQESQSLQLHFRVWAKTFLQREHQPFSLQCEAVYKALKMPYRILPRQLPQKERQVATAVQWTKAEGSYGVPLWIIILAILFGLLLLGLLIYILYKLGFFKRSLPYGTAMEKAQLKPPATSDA
# T1 sequence (P05556 21-798, chain 2 of 2): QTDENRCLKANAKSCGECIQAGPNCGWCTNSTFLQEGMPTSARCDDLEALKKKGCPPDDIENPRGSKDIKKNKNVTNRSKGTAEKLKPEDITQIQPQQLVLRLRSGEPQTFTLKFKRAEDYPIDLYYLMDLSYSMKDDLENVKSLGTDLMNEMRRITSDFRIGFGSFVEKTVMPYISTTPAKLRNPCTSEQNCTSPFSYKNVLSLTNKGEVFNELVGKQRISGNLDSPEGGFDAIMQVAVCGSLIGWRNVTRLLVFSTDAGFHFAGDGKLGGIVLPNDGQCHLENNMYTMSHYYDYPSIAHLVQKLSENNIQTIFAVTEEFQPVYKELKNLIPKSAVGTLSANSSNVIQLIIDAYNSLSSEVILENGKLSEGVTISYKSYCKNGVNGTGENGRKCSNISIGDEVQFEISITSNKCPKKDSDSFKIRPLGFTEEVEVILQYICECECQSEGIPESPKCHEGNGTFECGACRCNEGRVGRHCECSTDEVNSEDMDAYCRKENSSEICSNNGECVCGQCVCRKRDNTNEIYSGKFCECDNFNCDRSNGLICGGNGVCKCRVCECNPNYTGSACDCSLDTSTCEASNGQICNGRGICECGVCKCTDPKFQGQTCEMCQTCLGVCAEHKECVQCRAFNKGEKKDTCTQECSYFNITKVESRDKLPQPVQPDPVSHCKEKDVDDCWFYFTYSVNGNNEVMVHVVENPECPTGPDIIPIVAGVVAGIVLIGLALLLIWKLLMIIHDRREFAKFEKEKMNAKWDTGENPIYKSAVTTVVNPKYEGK
# Assay: flow cytometry on cells; competition: unlabelled competitor titrated against 5 nM CF647-NeoNectin on K562 cells, L15 medium with 1% BSA, 2 h at room temperature; KD = EC50/(1 + CL/KD,L)
# Conditions: one partner purified
binder,measurement,value
B1,Kd,150 µM
